Test results from patent US6740739B1, “Substitutional variants of APO-2 ligand” (Genentech, Inc., priority 1998, dated 2004).

Assays:
Format in all cases: cell-based, human
[1] = test system: 9D cells; assay: Apoptosis by FACS (PI / FITC-annexin V); settings: Apo-2 ligand 3 μg/ml, 24 hours, control 22.5
Description: Apoptotic activity of purified, soluble Apo-2 ligand (described in Example 3) was examined using several human lymphoid cell lines. In a first study, the effect of Apo-2 ligand on 9D cells (Genentech, Inc.), derived from Epstein-Barrvirus (EBV)-transformed human peripheral blood B cells, was examined. The 9D cells (5×10^4 cells/well in RPMI 1640 medium plus 10% fetal calf serum) were incubated for 24 hours with either a media control, Apo-2 ligand (3 μg/ml, prepared as described in Example 3 above), or anti-Apo-1 monoclonal antibody, CH11 (1 μg/ml) [described by Yonehara et al., J. Exp. Med., 169:1747-1756 (1989); commercially available from Medical and Biological Laboratories Co.]. […]
The effects of the Apo-2 ligand on the 9D cells, as well as on Raji cells (human Burkitt's lymphoma B cell line, ATCC CCL 86) and Jurkat cells (human acute T cell leukemia cell line, ATCC TIB 152) were further analyzed by FACS. […]
(§1) The 9D cells (FIG. 2B), Raji cells (FIG. 2C), and Jurkat cells (FIG. 2D) were incubated (1×10^6 cells/well) for 24 hours with a media control (left panels), Apo-2 ligand (3 μg/ml, prepared as described in Example 3) (center panels), or anti-Apo-1 ligand antibody, CH11 (1 μg/ml) (right panels). The cells were then washed, stained with PI and with fluorescein thiocyanate (FITC)-conjugatedannexin V (purchased from Brand Applications) and analyzed by flow cytometry. […]

[2] = test system: ME-180; assay: Cell viability by crystal violet staining
Description: (§2) The following human tumor cell lines were assayed: A549 (lung carcinoma, ATCC CCL 185); HCT116 (colon carcinoma, ATCC CCL 247); SW480 (colon adenocarcinoma, ATCC CCL 228); MDA231 (breast adenocarcinoma, ATCC HTB 26); HeLa (cervical carcinoma, ATCC CCL 22); ME-180 (cervical carcinoma, ATCC HTB 33); T24 (bladder carcinoma. ATCC HTB 4); SK-N-AS (neuroblastoma, White et al., Proc. Natl. Acad. Sci., 92:5520-5524 (1995)). The cells were plated at 2.5×10^5 cells/ml in 96 well plates and incubated overnight. The cells were cultured in the presence of 2-fold dilutions of Apo-2 ligand (ranging from 100 ng/ml to 0.01 ng/ml). In some of the cultures, a chemotherapeuticagent was also added for 24 hours-cyclohexamide (“CHX”) (50 μg/ml; Sigma Chemicals), Doxorubicin (10-100 μg/ml; Pharmacia), or 5-FU (6 mg/ml; Roche). After 24 hours of incubation, the cells were stained with 0.5% crystal-violetin 20% methanol. Cell viability was determined by eluting the dye from the stained cells with 0.1M sodium citrate (0.1M citric acid in 50% methanol), and measuring absorbance at 540 nm.

[3] = test system: T24; assay: Cell viability by crystal violet staining
Description: as §2

[4] = test system: Raji cells; assay: Apoptosis by FACS (PI / FITC-annexin V); settings: Apo-2 ligand 3 μg/ml, 24 hours, control 35.9
Description: The effects of the Apo-2 ligand on the 9D cells, as well as on Raji cells (human Burkitt's lymphoma B cell line, ATCC CCL 86) and Jurkat cells (human acute T cell leukemia cell line, ATCC TIB 152) were further analyzed by FACS. The FACS analysis was conducted, using established criteria for apoptotic cell death, namely, the relation of fluorescence staining of the cells with two markers: (a) propidium iodide (“PI”) dye, which stains apoptotic but not live cells, and (b) a fluorescent derivative of the protein, annexin V, which binds to the exposed phosphatidylserine found on the surface of apoptotic cells, but not on live cells [Darzynkiewicz et al., Methods in Cell Biol., 41:15-38 (1994); Fadok et al., J. Immunol., 148:2207-2216 (1992); Koopman et al., Blood, 84:1415-1420 (1994)].
as §1

B1: Apo-2L: purified soluble His10-tagged human Apo-2 ligand, residues 114-281, from baculovirus-infected Sf9 cells (Example 3); used in Examples 4-14 (protein)
chain: MGHHHHHHHHHHSSGHIDDDDKHMVRERGPQRVAAHITGTRGRSNTLSSPNSKNEKALGRKINSWESSRSGHSFLSNLHLRNGELVIHEKGFYYIYSQTYFRFQEEIKENTKNDKQMVQYIYKYTSYPDPILLMKSARNSCWSKDAEYGLYSIYQGGIFELKENDRIFVSVTNEHLIDMDHEASFFGAFLVG
- % apoptotic cells [1]: 92.4%
- Apo-2L sensitivity ENHANCED BY Dox ([2]; ME180, Doxorubicin 10-100 μg/ml, 24 hours): yes
- Apo-2L sensitivity ENHANCED BY CHX ([2]; ME180, cyclohexamide 50 μg/ml, 24 hours): yes
- Apo-2L SENSITIVITY ([2]; ME180 cervical carcinoma, p53 WT, 24 h): ++ (>70% death after 24 h with 100 ng/ml Apo-2L)
- Apo-2L sensitivity ENHANCED BY Dox ([3]; T24, Doxorubicin 10-100 μg/ml, 24 hours): yes
- Apo-2L sensitivity ENHANCED BY CHX ([3]; T24, cyclohexamide 50 μg/ml, 24 hours): yes
- Apo-2L SENSITIVITY ([3]; T24 bladder carcinoma, p53 mut, 24 h): +++ (>70% death after 24 h with 10 ng/ml Apo-2L)
- % apoptotic cells [4]: 73.4%
